Laboratory results as given in patent US20240301031A1 (JIANGSU HENGRUI PHARMACEUTICALS, published 2024).
Substitutions are numbered along the chain they refer to.

B1: TACI-1 Fc (Fc fusion)
chain: SGLGRSRKGGKSRVDQEERFPQGLWTGVAMRSCPEEQYWDPLLGTCMSCKTICNHQSQRTCAAFCRSLSCRKEQGKFYDHLLRDCISCASICGQHPKQCAYFCENKLRSPVNLPPELRKQRSGEVEQNSDNSGKYQGLEHRGSEASPALPGLKLSADQVALVYSDKTHTCPPCPAPEAEGAPSVFLFPPKPKDTLMISRTPEVTCVVVDVSHEDPEVKFNWYVDGVEVHNAKTKPREEQYNSTYRVVSVLTVLHQDWLNGKEYKCKVSNKALPSSIEKTISKAKGQPREPQVYTLPPSRDELTKNQVSLTCLVKGFYPSDIAVEWESNGQPENNYKTTPPVLDSDGSFFLYSKLTVDKSRWQQGNVFSCSVMHEALHNHYTQKSLSLSPGK
notes: two identical polypeptides
B2: TACI-2 Fc (Fc fusion)
chain: SGLGRSRKGGKSRVDQEERFPQGLWTGVAMRSCPEEQYWDPLLGTCMSCKTICNHQSQRTCAAFCRSLSCRKEQGKFYDHLLRDCISCASICGQHPKQCAYFCENKLRSPVNLPPELRKQRSGEVENNSDNSGDKTHTCPPCPAPEAEGAPSVFLFPPKPKDTLMISRTPEVTCVVVDVSHEDPEVKFNWYVDGVEVHNAKTKPREEQYNSTYRVVSVLTVLHQDWLNGKEYKCKVSNKALPSSIEKTISKAKGQPREPQVYTLPPSRDELTKNQVSLTCLVKGFYPSDIAVEWESNGQPENNYKTTPPVLDSDGSFFLYSKLTVDKSRWQQGNVFSCSVMHEALHNHYTQKSLSLSPGK
notes: two identical polypeptides
B3: TACI-3 Fc (Fc fusion)
chain: SGLGRSRKGGKSRVDQEERFPQGLWTGVAMRSCPEEQYWDPLLGTCMSCKTICNHQSQRTCAAFCRSLSCRKEQGKFYDHLLRDCISCASICGQHPKQCAYFCENKLRSPVNLPPELRKQRSGEVEDKTHTCPPCPAPEAEGAPSVFLFPPKPKDTLMISRTPEVTCVVVDVSHEDPEVKFNWYVDGVEVHNAKTKPREEQYNSTYRVVSVLTVLHQDWLNGKEYKCKVSNKALPSSIEKTISKAKGQPREPQVYTLPPSRDELTKNQVSLTCLVKGFYPSDIAVEWESNGQPENNYKTTPPVLDSDGSFFLYSKLTVDKSRWQQGNVFSCSVMHEALHNHYTQKSLSLSPGK
notes: two identical polypeptides
B4: TACI-4 Fc (Fc fusion)
chain: GGRSRVDQEERFPQGLWTGVAMRSCPEEQYWDPLLGTCMSCKTICNHQSQRTCAAFCRSLSCRKEQGKFYDHLLRDCISCASICGQHPKQCAYFCENKLRSPVNLPPELRKQRSGEVENNSDNSGKYQGLEHRGSEASPALPGLKLSADQVALVYSDKTHTCPPCPAPEAEGAPSVFLFPPKPKDTLMISRTPEVTCVVVDVSHEDPEVKFNWYVDGVEVHNAKTKPREEQYNSTYRVVSVLTVLHQDWLNGKEYKCKVSNKALPSSIEKTISKAKGQPREPQVYTLPPSRDELTKNQVSLTCLVKGFYPSDIAVEWESNGQPENNYKTTPPVLDSDGSFFLYSKLTVDKSRWQQGNVFSCSVMHEALHNHYTQKSLSLSPGK
notes: two identical polypeptides
B5: TACI-5 Fc (Fc fusion)
chain: GGRSRVDQEERFPQGLWTGVAMRSCPEEQYWDPLLGTCMSCKTICNHQSQRTCAAFCRSLSCRKEQGKFYDHLLRDCISCASICGQHPKQCAYFCENKLRSPVNLPPELRKQRSGEVENNSDNSGDKTHTCPPCPAPEAEGAPSVFLFPPKPKDTLMISRTPEVTCVVVDVSHEDPEVKFNWYVDGVEVHNAKTKPREEQYNSTYRVVSVLTVLHQDWLNGKEYKCKVSNKALPSSIEKTISKAKGQPREPQVYTLPPSRDELTKNQVSLTCLVKGFYPSDIAVEWESNGQPENNYKTTPPVLDSDGSFFLYSKLTVDKSRWQQGNVFSCSVMHEALHNHYTQKSLSLSPGK
notes: two identical polypeptides
B6: TACI-6 Fc (Fc fusion)
chain: GGRSRVDQEERFPQGLWTGVAMRSCPEEQYWDPLLGTCMSCKTICNHQSQRTCAAFCRSLSCRKEQGKFYDHLLRDCISCASICGQHPKQCAYFCENKLRSPVNLPPELRKQRSGEVEDKTHTCPPCPAPEAEGAPSVFLFPPKPKDTLMISRTPEVTCVVVDVSHEDPEVKFNWYVDGVEVHNAKTKPREEQYNSTYRVVSVLTVLHQDWLNGKEYKCKVSNKALPSSIEKTISKAKGQPREPQVYTLPPSRDELTKNQVSLTCLVKGFYPSDIAVEWESNGQPENNYKTTPPVLDSDGSFFLYSKLTVDKSRWQQGNVFSCSVMHEALHNHYTQKSLSLSPGK
notes: two identical polypeptides
B7: TACI-7 Fc (Fc fusion)
chain: FPQGLWTGVAMRSCPEEQYWDPLLGTCMSCKTICNHQSQRTCAAFCRSLSCRKEQGKFYDHLLRDCISCASICGQHPKQCAYFCENKLRSPVNLPPDKTHTCPPCPAPEAEGAPSVFLFPPKPKDTLMISRTPEVTCVVVDVSHEDPEVKFNWYVDGVEVHNAKTKPREEQYNSTYRVVSVLTVLHQDWLNGKEYKCKVSNKALPSSIEKTISKAKGQPREPQVYTLPPSRDELTKNQVSLTCLVKGFYPSDIAVEWESNGQPENNYKTTPPVLDSDGSFFLYSKLTVDKSRWQQGNVFSCSVMHEALHNHYTQKSLSLSPGK
notes: two identical polypeptides
B8: TACI-8 Fc (Fc fusion)
chain: SLSCRKEQGKFYDHLLRDCISCASICGQHPKQCAYFCENKLRSPVNLPPELRKQRSGEVENNSDNSGKYQGLEHRGSEASPALPGLKLSADQVALVYSDKTHTCPPCPAPEAEGAPSVFLFPPKPKDTLMISRTPEVTCVVVDVSHEDPEVKFNWYVDGVEVHNAKTKPREEQYNSTYRVVSVLTVLHQDWLNGKEYKCKVSNKALPSSIEKTISKAKGQPREPQVYTLPPSRDELTKNQVSLTCLVKGFYPSDIAVEWESNGQPENNYKTTPPVLDSDGSFFLYSKLTVDKSRWQQGNVFSCSVMHEALHNHYTQKSLSLSPGK
notes: two identical polypeptides
B9: TACI-9-1Fc (Fc fusion)
chain: STSCRKEQGKFYDHLLRDCISCASICGQHPKQCAYFCENKLDKTHTCPPCPAPEAEGAPSVFLFPPKPKDTLMISRTPEVTCVVVDVSHEDPEVKFNWYVDGVEVHNAKTKPREEQYNSTYRVVSVLTVLHQDWLNGKEYKCKVSNKALPSSIEKTISKAKGQPREPQVYTLPPSRDELTKNQVSLTCLVKGFYPSDIAVEWESNGQPENNYKTTPPVLDSDGSFFLYSKLTVDKSRWQQGNVFSCSVMHEALHNHYTQKSLSLSPGK
notes: two identical polypeptides
B10: TACI-9-2Fc (Fc fusion)
chain: B9 chain with T2L, R5S
notes: two identical polypeptides
B11: TACI-9-3Fc (Fc fusion)
chain: B9 chain with T2L, K6E
notes: two identical polypeptides
B12: TACI-9-4Fc (Fc fusion)
chain: B9 chain with T2L, K6Q
notes: two identical polypeptides
B13: TACI-9-5Fc (Fc fusion)
chain: B9 chain with T2L, K10E
notes: two identical polypeptides
B14: TACI-9-6Fc (Fc fusion)
chain: B9 chain with T2R, D18T
notes: two identical polypeptides
B15: TACI-9-7Fc (Fc fusion)
chain: B9 chain with T2R, D18A
notes: two identical polypeptides
B16: TACI-9-8Fc (Fc fusion)
chain: B9 chain with T2L, Y35A
notes: two identical polypeptides
B17: TACI-9-9Fc (Fc fusion)
chain: B9 chain with T2R, D18T, Y35R
notes: two identical polypeptides
B18: TACI-9-11Fc (Fc fusion)
chain: B9 chain with T2L, R5S, K6E, K10E
notes: two identical polypeptides
B19: TACI-9-12Fc (Fc fusion)
chain: B9 chain with Y35A
notes: two identical polypeptides

What follows are binders tested against T1, human BAFF (10056-HNCH, Sino biological) (human, UniProt Q9Y275 134-285) (assay: competition ELISA: biotin-labeled BAFF to coated BAFF-R).
T1 construct: Bought protein
Protocol: The blocking activity of the antibodies and the fusion proteins for receptors and ligands such as BAFF/BAFF-R, BAFF/BCMA, BAFF/TACI, APRIL/BCMA, APRIL/TACI, and p40/IL-12R1 was assayed by the ELISA method. The specific procedures were as follows:
A receptor protein was diluted to 2 μg/mL with PBS at pH 7.4 (BasalMedia, B320) and added to a 96-well microplate (Corning, 3590) at 100 μL/well. The plate was incubated at 4° C. overnight. After the liquid was discarded, 200 μL of 1% Casein blocking solution (Thermo, 37528) was added to each well for blocking, and the plate was incubated at 37° C. for 2 h. After the blocking was completed, the blocking solution was discarded, and the plate was washed 3 times with a PBST buffer (PBS at pH 7.4 containing 0.1% tween-20) for later use. A biotin-labeled ligand protein at a fixed concentration was mixed with the antibody or fusion protein diluted in gradient, pre-incubated at 37° C. for 30 min, and added to a blocked microplate. The plate was incubated at 37° C. for 1.5 h. After the incubation was completed, the plate was washed 3 times with PBST. 100 μL of streptavidin-HRP (Invitrogen, 434323, diluted at a ratio of 1:4000) was added to each well, and the plate was incubated at 37° C. for 1 h. The supernatant was removed, and the plate was washed 3 times with PBST. 100 μL of TMB chromogenic substrate (KPL, 5120-0077) was added to each well, and the plate was incubated at room temperature for 10-15 min. The reaction was stopped by adding 50 μL of 1 M H₂SO₄ to each well. The plate was read for absorbance values at 450 nm on a microplate reader, the curves for the inhibition of the binding of the ligands to the receptors were fitted with software, and the IC₅₀ values were calculated.

B1 and B2 are within 1.5-fold of each other in IC50: 44.7 nM for the first, 42.9 nM for the second.

Compared with B3, B4 is 25-fold lower in IC50: 826 nM for the first, 33.5 nM for the second.

B5 and B6 are within 1.5-fold of each other in IC50: 25.4 nM for the first, 18.5 nM for the second.

B7 and B8 are within 1.5-fold of each other in IC50: 27.9 nM for the first, 22.5 nM for the second.

What follows are binders tested against T1, human BAFF (10056-HNCH, Sino biological) (assay: ELISA, BAFF coated, fusion protein titrated).
Protocol: The binding activity of the antibodies or fusion proteins for BAFF, APRIL, and IL-12/23 p40 was assayed by the ELISA method (coating an antigen protein). The specific procedures were as follows:
A BAFF (Sino biological, 10056-HNCH), APRIL (R&D Systems, 5860-AP-010/CF), or IL-12/23 p40 (Sino biological, 10052-H08H) protein was diluted to 1 μg/mL with a PBS (BasalMedia, B320) buffer at pH 7.4, and added to a 96-well microplate (Corning, 3590) at 100 μL/well. The plate was incubated at 4° C. overnight. After the liquid was discarded, 300 μL of 5% skim milk (BD, 232100) diluted with PBS was added to each well for blocking, and the plate was incubated at 37° C. for 2 h. After the blocking was completed, the blocking solution was discarded, and the plate was washed 3 times with a PBST buffer (PBS at pH 7.4 containing 0.1% tween-20). 100 μL of test antibody or fusion protein solution diluted in a gradient was added to each well, and the plate was incubated at 37° C. for 1 h. After the incubation was completed, the plate was washed 3 times with PBST. […] The plate was washed 3 times with PBST. 100 μL of TMB chromogenic substrate (KPL, 5120-0077) was added to each well, and the plate was incubated at room temperature for 10-15 min. The reaction was stopped by adding 50 μL of 1 M H₂SO₄ to each well. The plate was read for absorbance values at 450 nm on a microplate reader, the binding curves of the antibodies to an antigen were fitted with software, and the EC₅₀ values were calculated.

B9 and B10 are within 1.5-fold of each other in EC50: 0.382 nM for the first, 0.279 nM for the second.

Going from B11 to B12, the EC50 rises from 0.265 nM to 0.469 nM (1.8-fold). The first is the more potent here.

First: B13
Second: B14
The EC50 of the first is 2.5-fold lower: 0.146 nM for the first, 0.367 nM for the second. The first is the more potent here.

Compared with B15, B16 is 3.6-fold lower in EC50: 0.727 nM for the first, 0.2 nM for the second.

Going from B17 to B18, the EC50 falls from 0.937 nM to 0.195 nM (4.8-fold).

B19 gave an EC50 of 0.122 nM.
